# From patent publication US20150344570A1 (published 2015)
# T1: FcγRIIb extracellular domain with C-terminal His tag (human, UniProt P31994 43-217)
# T1 construct: extracellular domain; also called FcgRIIb; 2b; not shown: His tag at the C terminus
# T1 sequence (looked up): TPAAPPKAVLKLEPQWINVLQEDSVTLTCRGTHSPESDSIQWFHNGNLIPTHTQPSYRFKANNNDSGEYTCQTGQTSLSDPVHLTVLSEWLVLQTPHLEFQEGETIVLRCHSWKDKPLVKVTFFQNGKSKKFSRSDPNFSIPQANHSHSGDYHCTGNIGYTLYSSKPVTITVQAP
# Molecular target: T1, FcγRIIb extracellular domain with …
# Assay: SPR, relative binding, HoCon Ab = 100
# Method: (§1) Analysis of interaction between objective antibody and the FcγR was carried out using Biacore T100 (GE Healthcare). HBS-EP+ (GE Healthcare) was used as the running buffer, and the measurement temperature was set to 25° C. Chips produced by immobilizing the antigen peptide by the amine coupling method to a Series S Sencor Chip CM5 (GE Healthcare), or alternatively, chips produced by allowing preliminarily biotinylated antigen peptides to interact with and immobilize onto a Series S Sensor Chip SA (certified) (GE Healthcare) were used. Antibodies of interest were captured onto an antigen peptide-immobilized chip, and allowed to interact to each FcγR diluted with running buffer. To regenerate and repeatedly use the chip, the antibodies captured on the chip were washed off by reacting 10 mM glycine-HCl, pH 1.5.
row,Ho/Con_2b,Binder
1,108 % of control,"GpH7-B3 variant T335_10E/GpL16-k0 (antibody, human IgG1, kappa, also called Ho Ab T335_10E) heavy: not shown light: DIVMTQSPLSLPVTPGEPASISCQASESLVHSNRNTYLHWYLQKPGQSPQLLIYKVSNRFSGVPDRFSGSGSGTDFTLKISRVEAEDVGVYYCSQNTHVPPTFGQGTKVEIERTVAAPSVFIFPPSDEQLKSGTASVVCLLNNFYPREAKVQWKVDNALQSGNSQESVTEQDSKDSTYSLSSTLTLSKADYEKHKVYACEVTHQGLSSPVTKSFNRGEC"
2,103 % of control,"GpH7-B3 variant Y296_20W/GpL16-k0 (antibody, human IgG1, kappa, also called Ho Ab Y296_20W) heavy: not shown light: DIVMTQSPLSLPVTPGEPASISCQASESLVHSNRNTYLHWYLQKPGQSPQLLIYKVSNRFSGVPDRFSGSGSGTDFTLKISRVEAEDVGVYYCSQNTHVPPTFGQGTKVEIERTVAAPSVFIFPPSDEQLKSGTASVVCLLNNFYPREAKVQWKVDNALQSGNSQESVTEQDSKDSTYSLSSTLTLSKADYEKHKVYACEVTHQGLSSPVTKSFNRGEC"
3,104 % of control,"GpH7-B3 variant T335_07I/GpL16-k0 (antibody, human IgG1, kappa, also called Ho Ab T335_07I) heavy: not shown light: DIVMTQSPLSLPVTPGEPASISCQASESLVHSNRNTYLHWYLQKPGQSPQLLIYKVSNRFSGVPDRFSGSGSGTDFTLKISRVEAEDVGVYYCSQNTHVPPTFGQGTKVEIERTVAAPSVFIFPPSDEQLKSGTASVVCLLNNFYPREAKVQWKVDNALQSGNSQESVTEQDSKDSTYSLSSTLTLSKADYEKHKVYACEVTHQGLSSPVTKSFNRGEC"
4,231 % of control,"GpH7-B3 variant V266_06M/GpL16-k0 (antibody, human IgG1, kappa, also called Ho Ab V266_06M) heavy: not shown light: DIVMTQSPLSLPVTPGEPASISCQASESLVHSNRNTYLHWYLQKPGQSPQLLIYKVSNRFSGVPDRFSGSGSGTDFTLKISRVEAEDVGVYYCSQNTHVPPTFGQGTKVEIERTVAAPSVFIFPPSDEQLKSGTASVVCLLNNFYPREAKVQWKVDNALQSGNSQESVTEQDSKDSTYSLSSTLTLSKADYEKHKVYACEVTHQGLSSPVTKSFNRGEC"
5,104 % of control,"GpH7-B3 variant T335_15Y/GpL16-k0 (antibody, human IgG1, kappa, also called Ho Ab T335_15Y) heavy: not shown light: DIVMTQSPLSLPVTPGEPASISCQASESLVHSNRNTYLHWYLQKPGQSPQLLIYKVSNRFSGVPDRFSGSGSGTDFTLKISRVEAEDVGVYYCSQNTHVPPTFGQGTKVEIERTVAAPSVFIFPPSDEQLKSGTASVVCLLNNFYPREAKVQWKVDNALQSGNSQESVTEQDSKDSTYSLSSTLTLSKADYEKHKVYACEVTHQGLSSPVTKSFNRGEC"
6,103 % of control,"GpH7-B3 variant S337_16H/GpL16-k0 (antibody, human IgG1, kappa, also called Ho Ab S337_16H) heavy: not shown light: DIVMTQSPLSLPVTPGEPASISCQASESLVHSNRNTYLHWYLQKPGQSPQLLIYKVSNRFSGVPDRFSGSGSGTDFTLKISRVEAEDVGVYYCSQNTHVPPTFGQGTKVEIERTVAAPSVFIFPPSDEQLKSGTASVVCLLNNFYPREAKVQWKVDNALQSGNSQESVTEQDSKDSTYSLSSTLTLSKADYEKHKVYACEVTHQGLSSPVTKSFNRGEC"

# Further lines, the binder ahead of its results:
row,Binder,Ho/Con_2b
1,"GpH7-B3 variant P238_09D/GpL16-k0 (antibody, human IgG1, kappa, also called Ho Ab P238_09D) heavy: not shown light: DIVMTQSPLSLPVTPGEPASISCQASESLVHSNRNTYLHWYLQKPGQSPQLLIYKVSNRFSGVPDRFSGSGSGTDFTLKISRVEAEDVGVYYCSQNTHVPPTFGQGTKVEIERTVAAPSVFIFPPSDEQLKSGTASVVCLLNNFYPREAKVQWKVDNALQSGNSQESVTEQDSKDSTYSLSSTLTLSKADYEKHKVYACEVTHQGLSSPVTKSFNRGEC",207 % of control
2,"GpH7-B3 variant S239_10E/GpL16-k0 (antibody, human IgG1, kappa, also called Ho Ab S239_10E) heavy: not shown light: DIVMTQSPLSLPVTPGEPASISCQASESLVHSNRNTYLHWYLQKPGQSPQLLIYKVSNRFSGVPDRFSGSGSGTDFTLKISRVEAEDVGVYYCSQNTHVPPTFGQGTKVEIERTVAAPSVFIFPPSDEQLKSGTASVVCLLNNFYPREAKVQWKVDNALQSGNSQESVTEQDSKDSTYSLSSTLTLSKADYEKHKVYACEVTHQGLSSPVTKSFNRGEC",175 % of control
3,"GpH7-B3 variant P331_16H/GpL16-k0 (antibody, human IgG1, kappa, also called Ho Ab P331_16H) heavy: not shown light: DIVMTQSPLSLPVTPGEPASISCQASESLVHSNRNTYLHWYLQKPGQSPQLLIYKVSNRFSGVPDRFSGSGSGTDFTLKISRVEAEDVGVYYCSQNTHVPPTFGQGTKVEIERTVAAPSVFIFPPSDEQLKSGTASVVCLLNNFYPREAKVQWKVDNALQSGNSQESVTEQDSKDSTYSLSSTLTLSKADYEKHKVYACEVTHQGLSSPVTKSFNRGEC",100 % of control
4,"GpH7-B3 variant S239_03V/GpL16-k0 (antibody, human IgG1, kappa, also called Ho Ab S239_03V) heavy: not shown light: DIVMTQSPLSLPVTPGEPASISCQASESLVHSNRNTYLHWYLQKPGQSPQLLIYKVSNRFSGVPDRFSGSGSGTDFTLKISRVEAEDVGVYYCSQNTHVPPTFGQGTKVEIERTVAAPSVFIFPPSDEQLKSGTASVVCLLNNFYPREAKVQWKVDNALQSGNSQESVTEQDSKDSTYSLSSTLTLSKADYEKHKVYACEVTHQGLSSPVTKSFNRGEC",108 % of control
5,"GpH7-B3 variant S267_06M/GpL16-k0 (antibody, human IgG1, kappa, also called Ho Ab S267_06M) heavy: not shown light: DIVMTQSPLSLPVTPGEPASISCQASESLVHSNRNTYLHWYLQKPGQSPQLLIYKVSNRFSGVPDRFSGSGSGTDFTLKISRVEAEDVGVYYCSQNTHVPPTFGQGTKVEIERTVAAPSVFIFPPSDEQLKSGTASVVCLLNNFYPREAKVQWKVDNALQSGNSQESVTEQDSKDSTYSLSSTLTLSKADYEKHKVYACEVTHQGLSSPVTKSFNRGEC",187 % of control
6,"GpH7-B3 variant P331_15Y/GpL16-k0 (antibody, human IgG1, kappa, also called Ho Ab P331_15Y) heavy: not shown light: DIVMTQSPLSLPVTPGEPASISCQASESLVHSNRNTYLHWYLQKPGQSPQLLIYKVSNRFSGVPDRFSGSGSGTDFTLKISRVEAEDVGVYYCSQNTHVPPTFGQGTKVEIERTVAAPSVFIFPPSDEQLKSGTASVVCLLNNFYPREAKVQWKVDNALQSGNSQESVTEQDSKDSTYSLSSTLTLSKADYEKHKVYACEVTHQGLSSPVTKSFNRGEC",111 % of control
7,"GpH7-B3 variant S324_06M/GpL16-k0 (antibody, human IgG1, kappa, also called Ho Ab S324_06M) heavy: not shown light: DIVMTQSPLSLPVTPGEPASISCQASESLVHSNRNTYLHWYLQKPGQSPQLLIYKVSNRFSGVPDRFSGSGSGTDFTLKISRVEAEDVGVYYCSQNTHVPPTFGQGTKVEIERTVAAPSVFIFPPSDEQLKSGTASVVCLLNNFYPREAKVQWKVDNALQSGNSQESVTEQDSKDSTYSLSSTLTLSKADYEKHKVYACEVTHQGLSSPVTKSFNRGEC",104 % of control
8,"GpH7-B3 variant S267_19Q/GpL16-k0 (antibody, human IgG1, kappa, also called Ho Ab S267_19Q) heavy: not shown light: DIVMTQSPLSLPVTPGEPASISCQASESLVHSNRNTYLHWYLQKPGQSPQLLIYKVSNRFSGVPDRFSGSGSGTDFTLKISRVEAEDVGVYYCSQNTHVPPTFGQGTKVEIERTVAAPSVFIFPPSDEQLKSGTASVVCLLNNFYPREAKVQWKVDNALQSGNSQESVTEQDSKDSTYSLSSTLTLSKADYEKHKVYACEVTHQGLSSPVTKSFNRGEC",185 % of control
9,"GpH7-B3 variant P331_20W/GpL16-k0 (antibody, human IgG1, kappa, also called Ho Ab P331_20W) heavy: not shown light: DIVMTQSPLSLPVTPGEPASISCQASESLVHSNRNTYLHWYLQKPGQSPQLLIYKVSNRFSGVPDRFSGSGSGTDFTLKISRVEAEDVGVYYCSQNTHVPPTFGQGTKVEIERTVAAPSVFIFPPSDEQLKSGTASVVCLLNNFYPREAKVQWKVDNALQSGNSQESVTEQDSKDSTYSLSSTLTLSKADYEKHKVYACEVTHQGLSSPVTKSFNRGEC",111 % of control
10,"GpH7-B3 variant P238_15Y/GpL16-k0 (antibody, human IgG1, kappa, also called Ho Ab P238_15Y) heavy: not shown light: DIVMTQSPLSLPVTPGEPASISCQASESLVHSNRNTYLHWYLQKPGQSPQLLIYKVSNRFSGVPDRFSGSGSGTDFTLKISRVEAEDVGVYYCSQNTHVPPTFGQGTKVEIERTVAAPSVFIFPPSDEQLKSGTASVVCLLNNFYPREAKVQWKVDNALQSGNSQESVTEQDSKDSTYSLSSTLTLSKADYEKHKVYACEVTHQGLSSPVTKSFNRGEC",114 % of control

# Molecular target: T1, FcγRIIb extracellular domain with …
# Assay: SPR, relative binding, HeCon Ab = 100
# Method: as §1
row,He/Con_2b,Binder
1,199 % of control,"GpH7-A5/GpH7-B3 variant K326_07I/GpL16-k0 (antibody, human IgG1, kappa, also called He Ab K326_07I) heavy 1: not shown heavy 2: not shown light: DIVMTQSPLSLPVTPGEPASISCQASESLVHSNRNTYLHWYLQKPGQSPQLLIYKVSNRFSGVPDRFSGSGSGTDFTLKISRVEAEDVGVYYCSQNTHVPPTFGQGTKVEIERTVAAPSVFIFPPSDEQLKSGTASVVCLLNNFYPREAKVQWKVDNALQSGNSQESVTEQDSKDSTYSLSSTLTLSKADYEKHKVYACEVTHQGLSSPVTKSFNRGEC"
2,104 % of control,"GpH7-A5/GpH7-B3 variant A330_01G/GpL16-k0 (antibody, human IgG1, kappa, also called He Ab A330_01G) heavy 1: not shown heavy 2: not shown light: DIVMTQSPLSLPVTPGEPASISCQASESLVHSNRNTYLHWYLQKPGQSPQLLIYKVSNRFSGVPDRFSGSGSGTDFTLKISRVEAEDVGVYYCSQNTHVPPTFGQGTKVEIERTVAAPSVFIFPPSDEQLKSGTASVVCLLNNFYPREAKVQWKVDNALQSGNSQESVTEQDSKDSTYSLSSTLTLSKADYEKHKVYACEVTHQGLSSPVTKSFNRGEC"
3,172 % of control,"GpH7-A5/GpH7-B3 variant A327_09D/GpL16-k0 (antibody, human IgG1, kappa, also called He Ab A327_09D) heavy 1: not shown heavy 2: not shown light: DIVMTQSPLSLPVTPGEPASISCQASESLVHSNRNTYLHWYLQKPGQSPQLLIYKVSNRFSGVPDRFSGSGSGTDFTLKISRVEAEDVGVYYCSQNTHVPPTFGQGTKVEIERTVAAPSVFIFPPSDEQLKSGTASVVCLLNNFYPREAKVQWKVDNALQSGNSQESVTEQDSKDSTYSLSSTLTLSKADYEKHKVYACEVTHQGLSSPVTKSFNRGEC"
4,140 % of control,"GpH7-A5/GpH7-B3 variant A327_10E/GpL16-k0 (antibody, human IgG1, kappa, also called He Ab A327_10E) heavy 1: not shown heavy 2: not shown light: DIVMTQSPLSLPVTPGEPASISCQASESLVHSNRNTYLHWYLQKPGQSPQLLIYKVSNRFSGVPDRFSGSGSGTDFTLKISRVEAEDVGVYYCSQNTHVPPTFGQGTKVEIERTVAAPSVFIFPPSDEQLKSGTASVVCLLNNFYPREAKVQWKVDNALQSGNSQESVTEQDSKDSTYSLSSTLTLSKADYEKHKVYACEVTHQGLSSPVTKSFNRGEC"
